How the values were obtained:
[1] = target: T1, mouse CDH17 (Mus musculus, UniProt Q9R100); test: Flow cytometry of VHH1 phage on HEK293T cells transfected with mouse CDH17; format: binding; details: transiently transfected HEK293T
T1 construct: expressed in transfected cells; host or cells: HEK293T
T1 sequence (Q9R100 26-827): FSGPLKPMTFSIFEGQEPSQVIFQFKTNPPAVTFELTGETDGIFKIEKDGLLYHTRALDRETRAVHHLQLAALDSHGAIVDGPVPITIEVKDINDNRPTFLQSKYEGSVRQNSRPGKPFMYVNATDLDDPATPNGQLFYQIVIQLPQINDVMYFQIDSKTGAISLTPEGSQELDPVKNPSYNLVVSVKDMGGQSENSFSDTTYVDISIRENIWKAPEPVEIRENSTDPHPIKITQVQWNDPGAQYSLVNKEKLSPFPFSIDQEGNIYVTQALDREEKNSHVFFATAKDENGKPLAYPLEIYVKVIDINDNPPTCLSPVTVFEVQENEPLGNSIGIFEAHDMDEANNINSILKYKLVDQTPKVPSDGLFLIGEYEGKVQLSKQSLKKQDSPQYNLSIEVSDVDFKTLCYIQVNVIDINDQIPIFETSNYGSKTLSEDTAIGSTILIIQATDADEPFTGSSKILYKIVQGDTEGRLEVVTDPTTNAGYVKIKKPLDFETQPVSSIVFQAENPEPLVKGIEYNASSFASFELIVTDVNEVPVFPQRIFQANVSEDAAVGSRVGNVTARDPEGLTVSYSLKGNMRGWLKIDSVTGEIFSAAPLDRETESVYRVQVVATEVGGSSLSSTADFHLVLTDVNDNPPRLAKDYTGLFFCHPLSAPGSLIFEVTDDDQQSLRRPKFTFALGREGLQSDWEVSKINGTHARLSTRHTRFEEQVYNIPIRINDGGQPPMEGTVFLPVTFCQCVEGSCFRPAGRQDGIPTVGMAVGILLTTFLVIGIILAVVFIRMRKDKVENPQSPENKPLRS
Excerpt: (§1) FIGS. 12A-12D are a series of graphs and images depicting isolation of VHH1 from a llama-derived […] antibody phage display naive library by panning to BON cells, as described in FIG. 1A. VHH1 was isolated from phage library and specifically bound human neuroendocrine tumor (NET) BON cells in vitro, but not other tumor cells such as breast cancer cells or leukemia cells, by positive or negative pannings, as illustrated in FIG. 1. […] FIG. 12B depicts the antigen of VHH1 is CDH17 (through DNA sequencing individual phage clones that specifically bound BON cells), as identified by screening the transfected cells. Flow analysis of VHH1 binding to CDH17 overexpressed in 293 cells is shown.
(§2) Next, to identify the protein antigen of the isolated VHH1 nanobody, ˜3000 human cell membrane protein cDNAs were prepared and transfected into HEK293T cells individually, followed by flow cytometry analysis with the VHH1-expressing phage and FITC-labeled secondary antibody against phage M13 protein (FIG. 12A). […] Human or mouse CDH17 cDNA was transiently transfected into HEK293T cells, followed by flow cytometry analysis with the VHH1-expressing phage and FITC-labeled secondary antibody against phage M13 protein.

[2] = tested on: BT474 cells; test: Flow cytometry binding of VHH1 to BT474 cells; design: species or system human
[3] = tested on: NT-3 cells; test: Flow analysis of VHH1 binding to NT-3 cells; design: species or system human
[4] = target: T2, human full length CDH17 (Homo sapiens, UniProt Q12864); test: Flow cytometry of VHH1 phage on HEK293T cells transfected with human CDH17; format: binding; details: screen of ~3000 cell surface proteins
T2 construct: expressed in transfected cells; host or cells: HEK293T
T2 sequence (Q12864 23-832): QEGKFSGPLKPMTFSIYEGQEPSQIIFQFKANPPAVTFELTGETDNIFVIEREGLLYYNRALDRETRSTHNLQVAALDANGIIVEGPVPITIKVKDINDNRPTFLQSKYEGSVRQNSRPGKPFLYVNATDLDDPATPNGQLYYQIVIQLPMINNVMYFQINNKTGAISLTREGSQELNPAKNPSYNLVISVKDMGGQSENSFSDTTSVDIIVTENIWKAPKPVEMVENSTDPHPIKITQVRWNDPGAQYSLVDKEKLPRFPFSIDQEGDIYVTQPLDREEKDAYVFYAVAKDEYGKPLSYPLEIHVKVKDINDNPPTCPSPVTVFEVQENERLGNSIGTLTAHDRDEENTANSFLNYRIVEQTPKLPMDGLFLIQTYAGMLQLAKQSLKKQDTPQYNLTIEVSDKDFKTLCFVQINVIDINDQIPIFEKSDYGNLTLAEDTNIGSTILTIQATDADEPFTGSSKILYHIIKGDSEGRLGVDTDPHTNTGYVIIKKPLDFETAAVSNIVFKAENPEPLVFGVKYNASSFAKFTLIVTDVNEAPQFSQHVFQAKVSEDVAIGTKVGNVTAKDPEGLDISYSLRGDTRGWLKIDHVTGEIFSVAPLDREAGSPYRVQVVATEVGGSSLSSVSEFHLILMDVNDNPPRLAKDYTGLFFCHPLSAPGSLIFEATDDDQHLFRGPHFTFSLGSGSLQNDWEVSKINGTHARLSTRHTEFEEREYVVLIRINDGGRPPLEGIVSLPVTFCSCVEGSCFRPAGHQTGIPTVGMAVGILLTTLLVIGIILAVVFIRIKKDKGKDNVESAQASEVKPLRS
Excerpt: as §1, §2

[5] = tested on: human pancreatic neuroendocrine tumor (PNET) samples; test: Flow cytometry binding of VHH1 to human PNET biopsy samples; details: four fresh samples via biopsy from liver
[6] = tested on: BON cells; test: Flow cytometry binding of VHH1 to BON cells; design: species or system human
[7] = target: T3, EC1 domain of CDH17 (Homo sapiens, UniProt Q12864); test: Flow analysis of VHH1 on CDH17 truncations in HEK293T cells; format: binding
T3 construct: expressed in transfected cells; host or cells: HEK293T
T3 sequence (Q12864 23-832): T2 sequence (Q12864 23-832)
Excerpt: (§3) FIGS. 22A-22C are series of images and graphs depicting that the VHH1 binds to the EC1 domain of CDH17. FIG. 22A is a schema showing human CDH17 truncations. […] FIG. 22C is a schematic diagram of CDH17 structure showing VHH1 binds to the N-terminal EC1 domain of CDH17.
(§4) In order to further confirm the antigen of VHH1 is CDH17, several CDH17 internal truncations were constructed. The truncations were transfected into HEK293T cells. […] Additionally, several CDH17 internal truncations were constructed (FIG. 22A) and transfected into HEK293T cells. Flow cytometry analysis was performed with the purified VHH1 nanobody and APC labeled anti-HA secondary antibody against HA on VHH1 nanobody. […] CDH17, a cell adhesion protein highly expressed in human NETs. CDH17 is a cell adhesion protein highly expressed in human NETs. […] One nanobody, named VHH1 was identified that specifically binds to CDH17 protein. […] VHH1 was sequenced and confirmed to contain the conserved VHH sequence (FIG. 14).

[8] = tested on: EC1 domain of CDH17; test: as above; format: binding, human
Excerpt: as §3, §4

[9] = tested on: BON cells; test: Flow cytometry binding of VLV or VLV-DM1 to BON cells; design: species or system human
Experimental: (§5) Scale bar: […]. […] Scale bar: […].

[10] = tested on: QGP1 cells; test: Flow cytometry binding of VLV or VLV-DM1 to QGP1 cells
Experimental: as §5

[11] = tested on: CDH17-negative QGP1 cells; test: In vitro killing of QGP1 cells by ADC (MTT assay); format: cell-based; details: cytotoxicity assay
Experimental: as §5

[12] = tested on: BON cells; test: In vitro killing of BON cells by ADC (MTT assay)
[13] = tested on: patient-derived AML cells; test: sCAR T plus Nb switch in patient-derived AML NSG mice; format: in vivo; details: sCAR T cells plus switch compared to sCAR T cell alone
Excerpt: (§6) FIGS. 6A-6H are series of images and graphs depicting that Nb switch-activated CAR T cells eradicate AML in vivo in a controllable manner. FIGS. 6A-6B: Schematic diagram of switchable CAR T system. The Nb157 was expressed and purified by fusing with PNE, a fourteen amino acid peptide, either at N terminal or C terminal of the Nanobody. Primary human T cells were engineered by lentivirus transduction of scFv CAR that recognized PNE specifically. FIG. 6C: Test the affinity of Nb157, Nb157-N-PNE or Nb157-C-PNE against THP-1 cells by flow cytometry analysis. FIG. 6D: Killing assay of Nb157-PNE-mediated sCAR system against THP-1 cells in series of switch concentrations. […] The engraftment volumes were monitored by measuring the lengths and widths of the tumors. […] The primary leukemia or CAR T cells in the mouse peripheral blood were monitored by staining with CD33 or CD3 fluorescence labeled antibodies.
It was explored whether the switch CAR system can also suppress primary AML cells in mice. To this end, patient-derived AML cells were injected into the NSG mice to build leukemic mice model as determined by detection of the human CD33+ AML cells in the peripheral blood of the recipient mice (FIG. 6G). […] The appearance of CD33+ AML cells or CD3+ T cells in peripheral blood were monitored by flow cytometry analysis weekly.

[14] = tested on: THP-1 cells; test: Killing assay of Nb157-PNE-mediated sCAR system; format: cell-based, human; details: sCAR T to THP-1 2:1, 16 hours
Excerpt: as §6, with “concentrations. The ratio of sCAR T to THP-1 was 2:1 and assay was performed after 16 hours incubation. FIG. 6E: 10 million THP-1 cells were transplanted into NSG mice subcutaneously to form the 150 mm^3 of tumors.” for “concentrations.”
Killing assays were performed as previously described (Cao, L. F. et al. (2010) Cytometry A 77, 534-545). […] Quantification were calculated by either Countbright beads or volume.

[15] = tested on: THP-1 tumors; test: sCAR T plus Nb switch in THP-1 xenograft NSG mice; format: in vivo; details: with sCAR T cells
Excerpt: as §6, with “concentrations. The ratio of sCAR T to THP-1 was 2:1 and assay was performed after 16 hours incubation. FIG. 6E: 10 million THP-1 cells were transplanted into NSG mice subcutaneously to form the 150 mm^3 of tumors.” for “concentrations.”
To determine whether the inducible switch, in concert with the sCAR T cells, can kill tumor in mice, THP-1 cells were transplanted into NSG mice subcutaneously to form tumors. […] It was determined whether resumption of the Nb157 switch injection suppress the tumor growth again. […]

B1: VHH1: llama nanobody binding the EC1 domain of CDH17, SEQ ID NO: 2 (protein)
VHH: QVQLQESGGGLVQPGGSTRLSCVSSRTFSYYDMGWFRQAPGKEREFVALLSWNGENAEYSDSVMGRFTVSRGNTQNSVNLQMNNLKPEDTGIYYCAVTHGGARSVRSWGQGTQVTVSS
modifications: VHH1 nanobody
binding to mouse CDH17 [1]: bound both human and mouse CDH17 | binding to BT474 cells [2]: cannot be bound by VHH1 | binding to NT-3 cells [3]: robustly bound by VHH1 | binding to human CDH17 [4]: only bound to human full length CDH17 | binding to human PNET samples [5]: robustly bound by VHH1 | binding to BON cells [6]: can be bound by VHH1 | binding domain on CDH17 [7]: binds to the EC1 domain at the N-terminal part of CDH17 | binding to EC1 domain deleted truncation Del-1 [8]: completely lost the function to interact with VHH1 nanobody

B2: VLV-DM1 (conjugate)
VHH 1: B1 VHH
VHH 2: B1 VHH
modifications: left off: things letters cannot carry; small tags and cut ends
binding to BON cells [9]: bound to BON cells, albeit with slightly reduced affinity | binding to QGP1 cells [10]: but not QGP1 cells | killing of QGP1 cells [11]: but not CDH17-negative QGP1 cells | lysis of BON cells (morphology) ([12]; at 4 nM, microscopic observation): lysed the BON cells | killing of BON cells ([12]; cytotoxicity assay): significantly killed BON cells

B3: Nb157-C-PNE: Nb157 with C-terminal PNE, a fourteen amino acid peptide; inducible nanobody switch (protein)
chain: AAQAAQVQLQESGGGLVQPGGSLSLSCTASGFTFSSYSMAWVRQAPGKGPEWVSGIYPSDGKTRYADFVKGRFSISRDNAKNMLYLQMNNLEPEDTALYYCARGITGLGPRGQGTQVTVSSAA
modifications: left off: small tags and cut ends
notes: Nb157 with C-terminal PNE, a fourteen amino acid peptide; inducible nanobody switch
survival (Kaplan Maier) [13]: significantly protected the leukemic mice from dying | switch-triggered killing of THP-1 cells by sCAR T cells [14]: potently triggered the killing of THP-1 cells by the sCAR T cells | tumor growth, THP-1 xenograft ([15]; first five times of switch injection): significantly slowed down growth | tumor size ([15]; switch restarted from day 21, day 52): almost undetectable
